Laboratory results: patent publication US20200157212A1 (Pfizer, published 2020)

T1: Human ROBO2 Ig1-Ig2-His (human, UniProt Q9HCK4 31-220)
T1 construct: the His tag is named only in the SPR paragraphs; the Octet and ELISA paragraphs print 'ROBO2 Ig1-Ig2' without a tag; also called ROBO2 Ig1-2; Human ROBO2 Ig 1,2
T1 sequence: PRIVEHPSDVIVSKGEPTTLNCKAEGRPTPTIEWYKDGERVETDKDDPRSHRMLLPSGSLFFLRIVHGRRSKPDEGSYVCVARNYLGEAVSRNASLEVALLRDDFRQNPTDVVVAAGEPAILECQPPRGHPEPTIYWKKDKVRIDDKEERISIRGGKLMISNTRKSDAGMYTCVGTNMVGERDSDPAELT

T2: Rat ROBO2 on cells (rat, UniProt Q7TPD3 22-1469 (mouse entry))
T2 chain: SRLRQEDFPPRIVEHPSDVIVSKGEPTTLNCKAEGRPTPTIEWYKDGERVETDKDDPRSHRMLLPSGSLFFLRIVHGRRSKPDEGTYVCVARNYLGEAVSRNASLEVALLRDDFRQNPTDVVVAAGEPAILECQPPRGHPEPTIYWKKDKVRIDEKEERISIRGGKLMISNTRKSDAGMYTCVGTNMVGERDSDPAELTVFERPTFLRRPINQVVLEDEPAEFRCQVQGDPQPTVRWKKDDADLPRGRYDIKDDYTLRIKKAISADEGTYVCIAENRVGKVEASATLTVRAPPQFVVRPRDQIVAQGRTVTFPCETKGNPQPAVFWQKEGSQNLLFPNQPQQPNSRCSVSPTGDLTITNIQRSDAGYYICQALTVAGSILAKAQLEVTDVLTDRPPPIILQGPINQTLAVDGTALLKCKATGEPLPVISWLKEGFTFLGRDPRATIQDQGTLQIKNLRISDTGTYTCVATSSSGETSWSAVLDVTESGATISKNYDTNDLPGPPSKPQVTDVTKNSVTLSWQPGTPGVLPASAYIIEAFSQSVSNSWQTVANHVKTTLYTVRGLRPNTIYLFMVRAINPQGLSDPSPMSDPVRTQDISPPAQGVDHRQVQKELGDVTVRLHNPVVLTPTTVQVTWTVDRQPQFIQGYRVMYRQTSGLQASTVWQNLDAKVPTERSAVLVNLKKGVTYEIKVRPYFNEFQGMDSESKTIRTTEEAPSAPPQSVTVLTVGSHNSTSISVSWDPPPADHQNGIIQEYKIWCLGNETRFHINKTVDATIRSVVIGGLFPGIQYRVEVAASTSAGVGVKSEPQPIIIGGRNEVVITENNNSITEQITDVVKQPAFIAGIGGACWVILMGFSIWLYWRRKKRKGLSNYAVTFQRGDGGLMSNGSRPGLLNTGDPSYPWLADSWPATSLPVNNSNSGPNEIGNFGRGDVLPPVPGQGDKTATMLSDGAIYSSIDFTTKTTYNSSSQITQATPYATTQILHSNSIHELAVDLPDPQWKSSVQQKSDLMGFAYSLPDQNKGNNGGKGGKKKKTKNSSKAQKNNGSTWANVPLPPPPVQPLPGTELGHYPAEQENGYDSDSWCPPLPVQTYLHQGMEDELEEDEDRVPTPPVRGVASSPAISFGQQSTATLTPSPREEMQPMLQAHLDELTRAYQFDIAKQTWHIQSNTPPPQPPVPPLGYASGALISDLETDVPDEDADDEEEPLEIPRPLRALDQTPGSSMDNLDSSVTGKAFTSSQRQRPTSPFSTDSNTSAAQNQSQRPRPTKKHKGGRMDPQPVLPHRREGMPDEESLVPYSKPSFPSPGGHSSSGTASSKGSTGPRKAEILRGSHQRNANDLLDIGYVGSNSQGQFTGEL


Tests used:
Human ROBO2 Ig1-Ig2-His [1] = molecular target: T1, Human ROBO2 Ig1-Ig2-His; experiment: Octet (BLI)
[2] = molecular target: T3, Human ROBO1 RSK mutant overexpressed on HEK293 cells (human, UniProt Q9Y6N7 26-1651); experiment: flow cytometry, Geo MFI ROBO1-RSK/ROBO2-KSR HEK293 cells, 0.1 µg/ml
T3 construct: K137R and R139K already in the entry; also called ROBO1-RSK cells

Rat ROBO2 on cells = molecular target: T2, Rat ROBO2 on cells; experiment: cell-based or functional assay
Human ROBO2 Ig1-Ig2-His [3] = molecular target: T1, Human ROBO2 Ig1-Ig2-His; experiment: Octet method and SPR method
Human ROBO2 Ig1-Ig2-His [4] = molecular target: T1, Human ROBO2 Ig1-Ig2-His; experiment: Octet and SPR, against the parental antibody
Human ROBO2 Ig1-Ig2-His [5] = molecular target: T1, Human ROBO2 Ig1-Ig2-His; experiment: SPR, Biacore T200, Abcs35 immobilized on CM5 chip, ROBO2 Ig1-Ig2-His as analyte
Experimental: (§1) […] Association and dissociation were followed over time.
(§2) Based upon several criteria, Abcs25 and Abcs35 were selected for further characterization. Using flow cytometry, improvement in the binding EC₅₀ to human ROBO2 relative to the parental 93H2 was evaluated. Starting at 6.7 nM, 11-point, 3-fold dilution series were made for each antibody and used to stain HEK293 overexpressing human ROBO2 as described above for the ROBO2 fold selectivity (Example 2). […] In addition to measuring improved binding to human ROBO2, it was important to ensure that high affinity binding to both cynomolgus monkey ROBO2 and rat ROBO2 was maintained. Using HEK293 cells overexpressing either cynomolgus monkey ROBO2 or rat ROBO2, the relative dose-dependent binding of 93H2, Abcs25 and Abcs35 was evaluated as described above. High affinity binding to both cynomolgus monkey and rat ROBO2 was maintained in Abcs25 and Abcs35 (Table 4). […] Briefly, Abcs35 was immobilized to 300 resonance units (RU) on a CM5 chip. Association of ROBO2 Ig1-Ig2-His (ROBO2) was measured over 5 minutes and dissociation was followed for a period of 10 minutes.

Human ROBO2 Ig1-Ig2-His [6] = molecular target: T1, Human ROBO2 Ig1-Ig2-His; experiment: SPR (Biacore T200), Abcs35 immobilized on a CM5 chip, ROBO2 Ig1-Ig2-His as analyte; column head kon(1/Ms)
Experimental: as §1, §2

T3 sequence (Q9Y6N7 other isoform, or with tags, fused parts or gaps mutant limits assumed): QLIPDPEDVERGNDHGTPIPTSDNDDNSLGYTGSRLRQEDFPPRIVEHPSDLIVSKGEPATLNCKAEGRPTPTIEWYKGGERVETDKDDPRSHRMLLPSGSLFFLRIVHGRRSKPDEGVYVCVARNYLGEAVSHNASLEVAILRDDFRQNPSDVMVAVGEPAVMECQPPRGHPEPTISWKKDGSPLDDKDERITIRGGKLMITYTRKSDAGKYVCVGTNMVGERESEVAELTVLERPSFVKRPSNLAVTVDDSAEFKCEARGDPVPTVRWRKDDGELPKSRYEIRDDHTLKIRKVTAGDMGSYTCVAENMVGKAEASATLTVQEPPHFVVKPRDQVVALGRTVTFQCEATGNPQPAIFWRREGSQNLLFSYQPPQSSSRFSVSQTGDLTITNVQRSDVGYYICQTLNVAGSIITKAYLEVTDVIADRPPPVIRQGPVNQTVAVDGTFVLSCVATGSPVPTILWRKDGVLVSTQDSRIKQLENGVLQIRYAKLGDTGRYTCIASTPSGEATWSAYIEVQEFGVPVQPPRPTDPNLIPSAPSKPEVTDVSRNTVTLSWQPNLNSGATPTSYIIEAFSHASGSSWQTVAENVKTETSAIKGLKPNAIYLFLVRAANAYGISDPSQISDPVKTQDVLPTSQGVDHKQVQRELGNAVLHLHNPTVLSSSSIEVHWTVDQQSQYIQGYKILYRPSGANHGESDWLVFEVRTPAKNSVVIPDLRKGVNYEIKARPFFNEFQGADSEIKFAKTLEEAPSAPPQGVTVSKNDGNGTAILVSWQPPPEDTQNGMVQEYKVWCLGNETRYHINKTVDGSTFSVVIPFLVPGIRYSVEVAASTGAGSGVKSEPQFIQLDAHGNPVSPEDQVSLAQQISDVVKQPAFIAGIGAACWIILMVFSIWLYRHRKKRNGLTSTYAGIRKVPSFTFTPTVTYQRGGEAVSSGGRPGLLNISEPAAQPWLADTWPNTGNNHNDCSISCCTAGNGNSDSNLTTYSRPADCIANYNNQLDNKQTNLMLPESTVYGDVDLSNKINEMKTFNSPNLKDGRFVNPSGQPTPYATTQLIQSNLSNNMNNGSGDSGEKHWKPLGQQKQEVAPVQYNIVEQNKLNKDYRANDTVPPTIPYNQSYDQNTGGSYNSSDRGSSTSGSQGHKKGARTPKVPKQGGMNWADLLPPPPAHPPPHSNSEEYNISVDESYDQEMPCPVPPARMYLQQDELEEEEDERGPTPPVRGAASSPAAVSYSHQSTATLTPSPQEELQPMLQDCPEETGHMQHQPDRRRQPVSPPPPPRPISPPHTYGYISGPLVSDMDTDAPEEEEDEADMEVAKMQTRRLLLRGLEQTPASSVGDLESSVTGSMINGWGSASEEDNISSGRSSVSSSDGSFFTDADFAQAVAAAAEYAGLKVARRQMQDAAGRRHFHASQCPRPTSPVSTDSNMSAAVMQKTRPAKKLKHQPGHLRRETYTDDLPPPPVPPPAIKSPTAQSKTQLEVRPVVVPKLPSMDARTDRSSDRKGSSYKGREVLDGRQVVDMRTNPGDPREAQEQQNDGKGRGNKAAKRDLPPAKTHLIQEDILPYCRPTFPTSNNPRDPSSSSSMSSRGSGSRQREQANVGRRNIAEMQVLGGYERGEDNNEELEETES

Binder | Kd (Human ROBO2 Ig1-Ig2-His [1]) [nM] | Fold Selectivity for RSK/KSR [2] [fold] | IC50, restoration of neuronal cell migration (SVZa assay) (Rat ROBO2 on cells) [nM] | Kd (Human ROBO2 Ig1-Ig2-His [3]) [nM] | fold affinity improvement (Human ROBO2 Ig1-Ig2-His [4]) [fold] | Kd (Human ROBO2 Ig1-Ig2-His [5]) [nM] | kon (Human ROBO2 Ig1-Ig2-His [6]) [M⁻¹ s⁻¹]
93H2 (antibody, human IgG1, kappa, V domains shown, also called parental 93H2; 93H2 mAb) VH: EVQLVQSGAEVKKPGASVKVSCKASGYTFTGYYMHWVRQAPGQGLEWMGWINPNSGATNFPQKFQGRVTMTRDTSITTAYMDLSRLRSDDTAVYYCARESGDDAFDIWGQGTMVTVSS VL: not shown | 37 | > 100 | – | – | – | – | –
Abcs35 (antibody, human IgG1, kappa, fully human IgG1; VH of Ab96 with VL of Ab123) heavy: EVQLVQSGAEVKKPGASVKVSCKASGYTFTGYYMHWVRQAPGQGLEWMGWINPKNGDTEFPQKFQGRVTMTRDTSITTAYMDLSRLRSDDTAVYYCARESGDDAFDIWGQGTMVTVSSASTKGPSVFPLAPSSKSTSGGTAALGCLVKDYFPEPVTVSWNSGALTSGVHTFPAVLQSSGLYSLSSVVTVPSSSLGTQTYICNVNHKPSNTKVDKKVEPKSCDKTHTCPPCPAPEAAGAPSVFLFPPKPKDTLMISRTPEVTCVVVDVSHEDPEVKFNWYVDGVEVHNAKTKPREEQYNSTYRVVSVLTVLHQDWLNGKEYKCKVSNKALPAPIEKTISKAKGQPREPQVYTLPPSREEMTKNQVSLTCLVKGFYPSDIAVEWESNGQPENNYKTTPPVLDSDGSFFLYSKLTVDKSRWQQGNVFSCSVMHEALHNHYTQKSLSLSPGK light: DIVMTQSPSSLSASVGDRVTITCRASQSISSYLNWYQQKPGKAPKLLIYAASSLQSGVPSRFSGSGSGTDFTLTISSLQPEDFATYYCQQSVGLFFGGGTKVEIKRTVAAPSVFIFPPSDEQLKSGTASVVCLLNNFYPREAKVQWKVDNALQSGNSQESVTEQDSKDSTYSLSSTLTLSKADYEKHKVYACEVTHQGLSSPVTKSFNRGEC | – | – | 0.027 | 0.279 | ~300 | 0.268 | 2.96e+07
